The record followed here is the supplement of paper PMC10724198.

± gives the standard deviation of the averaged measurements.

The data set relates to Saccharomyces cerevisiae. The data set can be described thus: protein stability index of tFT-peptide fusion (C-terminal peptide) (PSI (0-1 scale)); higher = more stable (slower turnover). The conditions noted are these: temperature: 30 C. The procedure: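 MPS profiling in S. cerevisiae of the yeast C-terminome library: the last 12 aa of each annotated ORF are fused to the C-terminus of a sfGFP-mCherry timer, after a GGGS linker. Cells are FACS-sorted into 8 mCherry/sfGFP bins and deep-sequenced. PSI runs from 0 (unstable) to 1 (stable); wild type and das1Δ backgrounds, two technical replicates each.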

Setting [1] is: genetic background: das1 deletion.

In the case of STAVRSIDALKN [HSP31 C-terminal 12 aa], the protein stability index under setting [1] came to 0.701 ± 0.042 and the protein stability index (genetic background: wild type) was determined as 0.687 ± 0.0074.
For STERAKELLESN [MRF1 C-terminal 12 aa] the same measures were 0.666 ± 0.026 and 0.69 ± 0.033.
Turning to STGSETKIADCR [HSM3 C-terminal 12 aa], the protein stability index runs as follows: under setting [1], 0.683 ± 0.01; (genetic background: wild type) 0.695 ± 0.021.
Take STSGESFTETQF [ICL2 C-terminal 12 aa]: the protein stability index runs as follows: under setting [1], 0.6971 ± 0.0022; (genetic background: wild type) 0.73 ± 0.054.
Take STTIRAINALYS [HSP32 C-terminal 12 aa]: the protein stability index under setting [1] was found to be 0.675 ± 0.017 and the protein stability index (genetic background: wild type) was 0.65 ± 0.037.
For SVFGEAEEVTNW [MET2 C-terminal 12 aa] the same measures were 0.701 ± 0.017 and 0.702 ± 0.031.
Consider SVTSKFKKYPYK [BET2 C-terminal 12 aa], for which the protein stability index under setting [1] was determined as 0.7131 ± 0.0021 and the protein stability index (genetic background: wild type) was 0.634 ± 0.026.
For SWISKEKRVSEE [HXT2 C-terminal 12 aa] the same measures were 0.731 ± 0.032 and 0.809 ± 0.04.
As to SWLYNFDELLWQ [ALG8 C-terminal 12 aa], the protein stability index reads like this: under setting [1], 0.761 ± 0.011; (genetic background: wild type) 0.727 ± 0.021.
In the case of SYNDPALADFMP [NRE1 C-terminal 12 aa], the protein stability index came to 0.7154 ± 0.007 under setting [1] and 0.744 ± 0.039 (genetic background: wild type).
For TAEPNRNVNQMP [YDL218W C-terminal 12 aa] the same measures were 0.678 ± 0.017 and 0.662 ± 0.013.
TASEIQRTKSSI [YGR035C C-terminal 12 aa] showed a protein stability index under setting [1] of 0.711 ± 0.03 and a protein stability index (genetic background: wild type) of 0.683 ± 0.022.
For TDEFDMLIGIDH [COG6 C-terminal 12 aa] the same measures were 0.697 ± 0.024 and 0.707 ± 0.025.
For TDLENETFIYPL [YCT1 C-terminal 12 aa] the same measures were 0.722 ± 0.022 and 0.793 ± 0.072.
For TDNTVYQKFLKY [ILV1 C-terminal 12 aa] the same measures were 0.674 ± 0.014 and 0.692 ± 0.041.
As to TDVKKFIHELCE [TRP3 C-terminal 12 aa], the protein stability index stood at 0.69 ± 0.014 under setting [1] and 0.679 ± 0.034 (genetic background: wild type).
For TEKKINTRPPFR [DAM1 C-terminal 12 aa] the same measures were 0.7012 ± 0.0011 and 0.656 ± 0.011.
For TEMATDASARMV [TPO4 C-terminal 12 aa] the same measures were 0.687 ± 0.0097 and 0.682 ± 0.0089.
For the sequence TEPVKQVLGNKE [NMA1 C-terminal 12 aa], the protein stability index under setting [1] was 0.689 ± 0.012 and the protein stability index (genetic background: wild type) turned out to be 0.675 ± 0.014.
TFFDIRQKFVVV [BOP2 C-terminal 12 aa]: the protein stability index by setting is: under setting [1], 0.493 ± 0.012; (genetic background: wild type) 0.44744 ± 0.00038.
With TFLYYYFPLPTN [YPL080C C-terminal 12 aa], the protein stability index worked out at 0.656 ± 0.029 under setting [1] and 0.69 ± 0.028 (genetic background: wild type).
With “TFPLVMMKTTYY [YFR009W-A C-terminal 12 aa]”, the protein stability index amounted to 0.72 ± 0.065 under setting [1] and 0.697 ± 0.044 (genetic background: wild type).
Sequence TGTSNSVLVIIT [YPL136W C-terminal 12 aa] returned a protein stability index under setting [1] of 0.677 ± 0.013 and a protein stability index (genetic background: wild type) of 0.684 ± 0.033.
For THKKPGFENYSI [IRC13 C-terminal 12 aa] the same measures were 0.70632 ± 0.00041 and 0.704 ± 0.017.
For TIAIGKIVKIAE [SUP35 C-terminal 12 aa] the same measures were 0.7085 ± 0.0052 and 0.685 ± 0.013.
Regarding “TIIYPLFIFFSL [YMR105W-A C-terminal 12 aa]”, the protein stability index is, setting by setting: under setting [1], 0.312 ± 0.022; (genetic background: wild type) 0.225 ± 0.0044.
For TISRLPPRSWTN [YCL042W C-terminal 12 aa] the same measures were 0.717 ± 0.037 and 0.739 ± 0.015.
For the sequence TIYDGEAVAKYI [PRE5 C-terminal 12 aa], the protein stability index runs as follows: under setting [1], 0.6775 ± 0.0025; (genetic background: wild type) 0.7 ± 0.046.
